Laboratory results from patent US20180094062A1 (Hoffmann-La Roche, published 2018).

T1: human recombinant HER4 Extracellular Domain (HER4 ECD) (human, UniProt Q15303 26-651)
T1 sequence: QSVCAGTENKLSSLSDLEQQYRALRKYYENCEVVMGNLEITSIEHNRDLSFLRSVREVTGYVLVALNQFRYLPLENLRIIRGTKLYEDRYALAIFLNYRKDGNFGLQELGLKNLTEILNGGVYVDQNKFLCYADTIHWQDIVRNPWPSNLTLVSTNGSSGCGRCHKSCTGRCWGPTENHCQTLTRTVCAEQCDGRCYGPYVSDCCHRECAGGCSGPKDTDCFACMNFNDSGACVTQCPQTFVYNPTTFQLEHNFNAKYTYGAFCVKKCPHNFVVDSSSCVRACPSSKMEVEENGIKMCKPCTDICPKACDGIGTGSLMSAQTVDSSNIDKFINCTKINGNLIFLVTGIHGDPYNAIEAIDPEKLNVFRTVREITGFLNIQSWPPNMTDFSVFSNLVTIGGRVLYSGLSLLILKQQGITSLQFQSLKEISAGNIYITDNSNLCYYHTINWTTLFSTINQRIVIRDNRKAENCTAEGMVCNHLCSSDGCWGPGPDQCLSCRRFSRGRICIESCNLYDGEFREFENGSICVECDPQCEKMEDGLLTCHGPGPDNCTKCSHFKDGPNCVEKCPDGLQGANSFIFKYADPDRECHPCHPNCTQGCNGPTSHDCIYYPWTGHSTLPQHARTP

T2: TgSlyDΔIF
T2 construct: negative control scaffold without insert (Thermococcus gammatolerans SlyD); also called TgSlyDAIF
T2 chain: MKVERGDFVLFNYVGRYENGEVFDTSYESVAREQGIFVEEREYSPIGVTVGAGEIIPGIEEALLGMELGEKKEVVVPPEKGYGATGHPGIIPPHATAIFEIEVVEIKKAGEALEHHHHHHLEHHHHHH

T3: TtSlyDcas-Her3
T3 chain: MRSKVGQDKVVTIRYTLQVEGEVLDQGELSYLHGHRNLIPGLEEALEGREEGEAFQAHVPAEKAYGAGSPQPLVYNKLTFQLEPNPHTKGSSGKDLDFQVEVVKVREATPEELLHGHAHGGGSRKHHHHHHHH


Legend:
[1] = biological target: T4, human recombinant HER3 Extracellular Domain (HER3 ECD) (human, UniProt P21860 20-643); experiment: ELISA, antigen coated, hybridoma supernatant
T4 construct: 68 kDa; also called human-Her3-ECD
Protocol: (§1) For the ELISA screening an antigen down format was used. […] Hybridoma Supernatant was added to the plates and incubated for 1 h at room temperature. Bound antibody was detected with a HRP-labeled F(ab′)₂ goat anti-mouse Fcγ (Dianova) and ABTS (Roche) was used as a HRP-substrate.
(§2) As negative controls the scaffold proteins TtSlyDcas and TgSlyDΔIF were used.

[2] = biological target: human HER2 Extracellular Domain (HER2 ECD) (human, UniProt P04626 23-652); experiment: ELISA, antigen coated, hybridoma supernatant
Protocol: as §1, §2

[3] = biological target: T1, human recombinant HER4 Extracellular …; experiment: ELISA, antigen coated, hybridoma supernatant
Protocol: as §1, §2

TgSlyDΔIF = biological target: T2, TgSlyDΔIF; experiment: ELISA, antigen coated, hybridoma supernatant
Protocol: as §1, §2

TtSlyDcas-Her3 = biological target: T3, TtSlyDcas-Her3; experiment: ELISA, antigen coated, hybridoma supernatant
Protocol: as §1, §2

[4] = biological target: T5, HER3 ECD-HRG complex (Heregulin-activated Her-3 ECD) (human, UniProt P21860 20-643); experiment: SPR, Interaction Map (TraceDrawer), two-state-kinetic no. 1, 25 C
T5 construct: receptor-ligand complex made by preincubating HER3 ECD with a five-fold molar excess of Heregulin; also called Heregulin/Her-3 ECD; Heregulin-complexed Her-3 ECD
Protocol: A Biacore T200 instrument (GE Healthcare) was mounted with a CM5 series sensor. The sensor was normalized in HBS-ET buffer (10 mM HEPES pH 7.4, 150 mM NaCl, 3 mM EDTA, 0.05% w/v Tween 20) according to the manufacturer's instructions. The sample buffer was the system buffer supplemented with 1 mg/ml CMD (Carboxymethyldextran, Sigma #86524). The system operated at 25° C. 6500 RU RAM-Fcγ (relative units of Fcγ-fragment RamlgG, GE Healthcare) were immobilized according to the manufacturer's instructions using amine coupling EDC/NHS chemistry on all four flow cells. The sensor was deactivated using 1M ethanolamine. […] Concentration dependent kinetics were measured. […] All analytes were injected for 5 min association time and 10 min dissociation time at 100 μl/min flow rate. The sensor capture system was regenerated by a 3 min injection at 10 μl/min of 10 mM glycine pH 1.7. Where possible kinetic data was evaluated using the Biacore T200 evaluation software.

[5] = biological target: T5, HER3 ECD-HRG complex …; experiment: SPR, Interaction Map (TraceDrawer), two-state-kinetic no. 2, 25 C
SBP-tagged HER3-ECD = biological target: T6, SBP-tagged HER3-ECD (human, UniProt P21860 20-643); experiment: time-resolved fluorescence, 10 nM Eu-labelled Heregulin-beta on plate-bound SBP-tagged HER3-ECD, antibody titrated
T6 construct: not shown: SBP tag
Protocol: On the next day the wells were washed three times with washing buffer (PBS+0.05% Tween-20) and blocked with PBS containing 1% BSA for one hour. After another three washes with washing buffer, 40 μl antibody solution (in Delfia Binding Buffer) was added to each well as a 2× stock of the desired final concentrations (10⁻³ to 10³ nM, alternatively 10⁻⁴ to 10² nM). Immediately […] of 20 nM Europium-labeled Heregulin-beta (PeproTech, Cat. #100-03) was added to achieve a final concentration of 10 nM. The plates were incubated on a shaker at room temperature for two hours. Following three washes with Delfia Wash Buffer, Delfia Enhancement Solution was added and incubated on a shaker for 15 minutes (light protected). Finally, the plates were measured in a Tecan Infinite F200 reader using a time-resolved fluorescence measurement protocol.

Row | OD 405 nm [1] [OD] | OD 405 nm [2] [OD] | binding result [2] | OD 405 nm [3] [OD] | binding result [3] | OD 405 nm (TgSlyDΔIF) [OD] | OD 405 nm (TtSlyDcas-Her3) [OD] | Kd [4] [nM] | Weight (contribution to the overall interaction) [4] [%] | koff [4] [s⁻¹] | kon [4] [M⁻¹ s⁻¹] | Kd [5] [nM] | Weight (contribution to the overall interaction) [5] [%] | koff [5] [s⁻¹] | kon [5] [M⁻¹ s⁻¹] | signal of HRG binding to HER3-ECD at the plateau (SBP-tagged HER3-ECD) [%] | Binder
1 | 2.96 | 0.03 | no binding | 0.025 | no binding | 0.026 | 1.53 | – | – | – | – | – | – | – | – | – | anti-HER3 antibody M-17-02 (antibody, V domains shown, mouse hybridoma clone) VH: EVQLQQSGTVLARPGASVKMSCKASGYSFTSYWIHWVKQRPGQGLEWIGAIYPGNSDTTYNQKFKGKAKLTAVTSASTAYMELSSLTNEDSAVYYCARTGVWTSYYFDYWGQGTTLTVSS VL: DIQMTQSPASLSASVGETVTITCRASENIYSNLAWYQQKQGKSPQLLVYAATNLADGVPSRFSGSGSGTQFSLRINSLQPEDFGSYYCQHFYGTPFTFGTGTKLEIK
2 | 1.44 | 0.045 | no binding | 0.04 | no binding | 0.038 | 3.27 | 261 | 69 | 0.141 | 541000 | 62 | 13 | 0.000988 | 15900 | 200 | anti-HER3 antibody M-43-01 (antibody, V domains shown, mouse hybridoma clone) VH: EVQLQQSGTVLARPGASVKMSCKASDYTFSNYWVHWVKQRPGQGLEWIGAIYPGNGDSTYYQKFKGKATLTAVTSTSTAYMDLSSLTNGDSAVYFCTRSGVGYNYYFDYWGQGTTLTVSS VL: DIQMTQSPASLSASVGETVTITCRASENIYSNLAWYQQKQGKSPQLLVYIATNLADGVPSRFSGSGSGTQFSLKINSLQPEDLGSYYCQHFYGTPFTFGTGTKLEIE
3 | 3.15 | 0.025 | no binding | 0.024 | no binding | 0.035 | 3.2 | 419 | 79 | 0.0799 | 191000 | 23 | 6 | 0.000449 | 19500 | 200 | anti-HER3 antibody M-08-11 (antibody, V domains shown, mouse monoclonal antibody from hybridoma, tested as hybridoma supernatant or as antibody; also called M-011) VH: QAYLQQSGAELMRPGASVRMSCQASGYTFTSYTIHWLKQTPRQGLEWIGAIYPRNGDFSYNQKFKDKASLTVDTSSSTAYMHLSSLTSEDSAVYFCARTINYGDWFAYWGQGTLVTVSA VL: DIQMIQSPASLFVSEGETVIITCRASENIYSNLAWYHQKKGKSPQVLVYAAIKLADGVPLRFSGSGSGTQFSLKINSLQSEDFGSYYCQHFWGPPYTFGSGTNLEIK
4 | 1.35 | 0.04 | no binding | 0.032 | no binding | – | 2.56 | 356 | 77 | 0.232 | 652000 | 15.7 | 7 | 0.000774 | 49400 | 330 | anti-HER3 antibody M-46-01 (antibody, V domains shown, mouse hybridoma clone) VH: QIQLQQSGPQLVRPGASVKISCKASGYSFTSYWMHWVKQRPGRGLEWIGMIDPSDGVTRLNQKFKDKATLTVDNSSSTAYMQLSSPTSEDSAVHYCARVDVLYWYFDVWGAGTTVTVSS VL: DIVLTQSPASLAVSLGQRATISCRASKSISISGYSYMHWYQQKAGQPPKLLIYLTSNLESGVPARFSGSGSGTDFTLNIHPVEEEDAATYYCHHSRELPFTFGSGTKLEIK
